Experimental data published in PMC11385703.

Key:
[1] = target: Myotoxin II, biotinylated (Bothrops asper) (UniProt P24605); experiment: BLI; […]) biosensors; […]; dissociation for 600 s in HEPES-MES pH 4.5; 25°C; 1:1 binding model, […]
[2] = target: Myotoxin II, biotinylated (Bothrops asper) (UniProt P24605); experiment: BLI; […]) biosensors; […]; association in HEPES-MES pH 7.4 for 300 s, dissociation in HEPES-MES pH 5.5 for 600 s; 1:1 binding model, […]
[3] = target: Myotoxin II, biotinylated (Bothrops asper) (UniProt P24605); experiment: BLI; […]) biosensors; […]; association in HEPES-MES pH 7.4 for 300 s, dissociation in HEPES-MES pH 7.4 for 600 s; 1:1 binding model, […]
[4] = target: Myotoxin II, biotinylated (Bothrops asper) (UniProt P24605); experiment: BLI; […]) biosensors; […]; dissociation for 600 s in HEPES-MES pH 6.5; 25°C; 1:1 binding model, […]
[5] = target: Myotoxin II, biotinylated (Bothrops asper) (UniProt P24605); experiment: BLI; […]) biosensors; […]; dissociation for 600 s in HEPES-MES pH 5.0; 25°C; 1:1 binding model, […]
[6] = target: Myotoxin II, biotinylated (Bothrops asper) (UniProt P24605); experiment: BLI; […]) biosensors; […]; dissociation for 600 s in HEPES-MES pH 5.5; 25°C; 1:1 binding model, […]
[7] = target: Myotoxin II, biotinylated (Bothrops asper) (UniProt P24605); experiment: BLI; […]) biosensors; […]; dissociation for 600 s in HEPES-MES pH 6.0; 25°C; 1:1 binding model, […]
[8] = target: Myotoxin II, biotinylated (Bothrops asper) (UniProt P24605); experiment: BLI; […]) biosensors; […]; dissociation for 600 s in HEPES-MES pH 4.0; 25°C; 1:1 binding model, […]
[9] = target: Myotoxin II, biotinylated (Bothrops asper) (UniProt P24605); experiment: BLI; […]) biosensors; […]; dissociation for 600 s in HEPES-MES pH 3.5; 25°C; 1:1 binding model, […]

Chain of Myotoxin II, biotinylated (Bothrops asper) (P24605 17-137): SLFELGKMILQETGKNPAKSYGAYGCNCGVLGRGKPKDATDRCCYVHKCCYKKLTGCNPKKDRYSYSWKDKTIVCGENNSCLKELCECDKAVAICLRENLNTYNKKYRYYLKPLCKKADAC

B1: TPL0039_05_A03 Fab (Fab, V domains shown)
VH: QVQLVESGGGLAKPGRSLRLSCAVSGFTFSSYGMHWVRQAPGKGLEWVAVISYDGSNKYYADSVKGRFTISRDNSKNTLYLQMNSLRAEDTAVYYCASTLQQLDAFDIWGQGTMVTVSS
VL: NFMLTQPHSVSESPGKTITISCTRSSGSIASNYVQWYQQRPGSVPTPVIYEDDRRPSGVPDRFSGSIDSSSNSASLTISGLKTEDEADYYCQSYDSSSVVFGGGTKITVL
- koff [1]: 0.0038 s⁻¹
- Kd [2]: 6.04 nM
- koff [2]: 0.0011 s⁻¹
- kon [2]: 180000 M⁻¹ s⁻¹
- Kd [3]: 1.5 nM
- koff [3]: 0.00031 s⁻¹
- kon [3]: 200000 M⁻¹ s⁻¹
- koff [4]: 0.00058 s⁻¹
- koff [5]: 0.0016 s⁻¹
- koff [6]: 0.0012 s⁻¹
- koff [7]: 0.00069 s⁻¹
- koff [8]: 0.01 s⁻¹
- koff [9]: 0.059 s⁻¹
